{
  "source": "paper doi:10.1101/2022.04.12.487901",
  "about": "(bioRxiv, 2022)",
  "key": {"[1]": {"biological_target": "T1, CHMP3 full length (residues 1-222) (human, UniProt Q9Y3E7 1-222)", "T1 sequence (looked up)": "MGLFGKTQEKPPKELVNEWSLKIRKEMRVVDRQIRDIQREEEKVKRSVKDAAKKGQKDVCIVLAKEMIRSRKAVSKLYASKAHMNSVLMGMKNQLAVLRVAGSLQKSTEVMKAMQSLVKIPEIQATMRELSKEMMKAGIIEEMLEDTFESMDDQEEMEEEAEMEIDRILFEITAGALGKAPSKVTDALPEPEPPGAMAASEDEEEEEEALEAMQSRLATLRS", "experiment": "cryo-EM structure"}, "[2]": {"biological_target": "the molecule itself", "experiment": "cryo-EM structure"}, "[3]": {"biological_target": "T2, CHMP3_K112A, K119A, K132A, K136A (human, UniProt Q9Y3E7 9-183, K112A | K119A | K132A | K136A)", "T2 sequence (looked up)": "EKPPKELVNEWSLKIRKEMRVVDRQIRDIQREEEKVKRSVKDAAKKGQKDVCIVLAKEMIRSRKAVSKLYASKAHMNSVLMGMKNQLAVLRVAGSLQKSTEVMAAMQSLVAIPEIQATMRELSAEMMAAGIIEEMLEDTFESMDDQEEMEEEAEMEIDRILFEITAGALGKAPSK", "experiment": "negative staining EM of polymer"}, "[4]": {"biological_target": "T1, CHMP3 full length (residues 1-222)", "experiment": "negative staining EM of polymer"}, "[5]": {"biological_target": "T3, CHMP3_S75C (human, UniProt Q9Y3E7 9-183, S75C)", "T3 sequence (looked up)": "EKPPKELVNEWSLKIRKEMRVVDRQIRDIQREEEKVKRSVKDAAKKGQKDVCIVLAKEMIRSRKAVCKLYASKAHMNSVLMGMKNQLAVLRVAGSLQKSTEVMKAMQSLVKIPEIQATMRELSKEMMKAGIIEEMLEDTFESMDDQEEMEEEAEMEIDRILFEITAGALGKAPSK", "experiment": "cross-linking"}, "[6]": {"biological_target": "T4, CHMP3_V110C (human, UniProt Q9Y3E7 9-183, V110C)", "T4 sequence (looked up)": "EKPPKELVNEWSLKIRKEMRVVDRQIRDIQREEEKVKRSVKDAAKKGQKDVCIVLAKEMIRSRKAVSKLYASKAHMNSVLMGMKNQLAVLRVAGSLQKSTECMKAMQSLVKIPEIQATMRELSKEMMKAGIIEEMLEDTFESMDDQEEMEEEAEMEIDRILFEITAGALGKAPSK", "experiment": "cross-linking"}},
  "data": [
    {"binder": "CHMP2AΔC (C-terminally truncated CHMP2A, residues 1-161), MBP removed (domain or fragment, human, UniProt O43633 1-161, looked up) MDLLFGRRKTPEELLRQNQRALNRAMRELDRERQKLETQEKKIIADIKKMAKQGQMDAVRIMAKDLVRTRRYVRKFVLMRANIQAVSLKIQTLKSNNSMAQAMKGVTKAMGTMNRQLKLPQIQKIMMEFERQAEIMDMKEEMMNDAIDDAMGDEEDEEESD", "values": [
      {"measurement": "binding result", "setting": "[1]", "value": "binds"},
      {"measurement": "binding result", "setting": "[2]", "value": "binds"}
    ]},
    {"binder": "CHMP2AΔC (residues 1-161) wild type, MBP fusion as used for tube formation without membrane coating (domain or fragment, human, UniProt O43633 1-161, looked up) MDLLFGRRKTPEELLRQNQRALNRAMRELDRERQKLETQEKKIIADIKKMAKQGQMDAVRIMAKDLVRTRRYVRKFVLMRANIQAVSLKIQTLKSNNSMAQAMKGVTKAMGTMNRQLKLPQIQKIMMEFERQAEIMDMKEEMMNDAIDDAMGDEEDEEESD", "values": [
      {"measurement": "binding result", "setting": "[3]", "value": "binds"},
      {"measurement": "binding result", "setting": "[4]", "value": "binds"}
    ]},
    {"binder": "CHMP2A_D57C (domain or fragment, human, UniProt O43633 9-161, looked up) KTPEELLRQNQRALNRAMRELDRERQKLETQEKKIIADIKKMAKQGQMCAVRIMAKDLVRTRRYVRKFVLMRANIQAVSLKIQTLKSNNSMAQAMKGVTKAMGTMNRQLKLPQIQKIMMEFERQAEIMDMKEEMMNDAIDDAMGDEEDEEESD", "values": [
      {"measurement": "binding result", "setting": "[5]", "value": "binds"}
    ]},
    {"binder": "CHMP2A_N18C (domain or fragment, human, UniProt O43633 9-161, looked up) KTPEELLRQCQRALNRAMRELDRERQKLETQEKKIIADIKKMAKQGQMDAVRIMAKDLVRTRRYVRKFVLMRANIQAVSLKIQTLKSNNSMAQAMKGVTKAMGTMNRQLKLPQIQKIMMEFERQAEIMDMKEEMMNDAIDDAMGDEEDEEESD", "values": [
      {"measurement": "binding result", "setting": "[6]", "value": "binds"}
    ]}
  ]
}
